# Article PMC9482650, “Quantitative fragmentomics allow affinity mapping of interactomes” (Nature Communications, 2022)
# T1: APBA1_2, Q02410
# T1 sequence (Q02410 742-832, limits assumed, looked up): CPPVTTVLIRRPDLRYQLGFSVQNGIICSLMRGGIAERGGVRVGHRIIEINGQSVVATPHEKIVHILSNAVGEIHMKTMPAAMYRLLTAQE
# T2: DLG3_3, Q92796
# T2 sequence (Q92796 374-475, limits assumed, looked up): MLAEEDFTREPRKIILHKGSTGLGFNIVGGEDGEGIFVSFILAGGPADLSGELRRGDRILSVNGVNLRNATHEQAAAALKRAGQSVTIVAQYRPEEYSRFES
# T3: HTRA3, P83110
# T3 sequence (P83110 354-453, limits assumed, looked up): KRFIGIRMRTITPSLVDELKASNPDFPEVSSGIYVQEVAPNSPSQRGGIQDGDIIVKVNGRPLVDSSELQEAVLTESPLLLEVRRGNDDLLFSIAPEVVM
# T4: LIN7B, Q9HAP6
# T4 sequence (Q9HAP6 88-185, limits assumed, looked up): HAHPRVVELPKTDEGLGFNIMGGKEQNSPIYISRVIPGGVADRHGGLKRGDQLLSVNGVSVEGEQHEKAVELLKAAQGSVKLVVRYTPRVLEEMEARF
# T5: LIN7C, Q9NUP9
# T5 sequence (Q9NUP9 88-185, limits assumed, looked up): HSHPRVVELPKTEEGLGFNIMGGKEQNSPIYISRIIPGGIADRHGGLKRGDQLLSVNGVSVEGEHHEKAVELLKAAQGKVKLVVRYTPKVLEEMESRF
# T6: NHERF3_3, Q5T2W1
# T6 sequence (Q5T2W1 238-333, limits assumed, looked up): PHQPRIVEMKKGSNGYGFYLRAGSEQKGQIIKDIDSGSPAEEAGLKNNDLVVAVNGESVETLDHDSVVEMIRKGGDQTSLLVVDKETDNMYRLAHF
# T7: RHPN1, Q8TCX5
# T7 sequence (Q8TCX5 508-602, limits assumed, looked up): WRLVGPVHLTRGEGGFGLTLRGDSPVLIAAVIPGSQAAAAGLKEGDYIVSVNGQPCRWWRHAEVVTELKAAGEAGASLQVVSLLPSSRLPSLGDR
# T8: SNTA1, Q13424
# T8 sequence (Q13424 82-180, limits assumed, looked up): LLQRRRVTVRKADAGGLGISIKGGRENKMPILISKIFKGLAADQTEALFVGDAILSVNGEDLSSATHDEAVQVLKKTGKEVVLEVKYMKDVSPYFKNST
# Tests used:
# Test in all cases: holdup assay
# Set-up in all cases: key: below the threshold = too weak to quantify, mostly under pKd 3.1 to 4
# Settings in all cases: plain residues with an end cap or a label only (N-terminal biotin on a linker: ado-ado)
# APBA1_2, Q02410 = target: T1, APBA1_2, Q02410
# ARHGEF12, Q9NZN5-2 = target: ARHGEF12, Q9NZN5-2
# DLG1_1, Q12959 = target: DLG1_1, Q12959
# DLG2_2, Q15700 = target: DLG2_2, Q15700
# DLG3_3, Q92796 = target: T2, DLG3_3, Q92796
# DLG4_3, P78352 = target: DLG4_3, P78352
# FRMPD2_1, Q68DX3 = target: FRMPD2_1, Q68DX3
# FRMPD2_2, Q68DX3 = target: FRMPD2_2, Q68DX3
# FRMPD3, Q5JV73 = target: FRMPD3, Q5JV73
# GOPC, Q9HD26 = target: GOPC, Q9HD26
# GORASP1, Q9BQQ3 = target: GORASP1, Q9BQQ3
# GRIP2_3, Q9C0E4 = target: GRIP2_3, Q9C0E4
# HTRA3, P83110 = target: T3, HTRA3, P83110
# Inadl_1, Q8NI35 = target: Inadl_1, Q8NI35
# Inadl_10, Q8NI35 = target: Inadl_10, Q8NI35
# Inadl_4, Q8NI35 = target: Inadl_4, Q8NI35
# Inadl_6, Q8NI35 = target: Inadl_6, Q8NI35
# Inadl_8, Q8NI35 = target: Inadl_8, Q8NI35
# LIN7B, Q9HAP6 = target: T4, LIN7B, Q9HAP6
# LIN7C, Q9NUP9 = target: T5, LIN7C, Q9NUP9
# LNX1_2, Q8TBB1 = target: LNX1_2, Q8TBB1
# LNX1_3, Q8TBB1 = target: LNX1_3, Q8TBB1
# MAGI1_2, Q96QZ7 = target: MAGI1_2, Q96QZ7
# MAGI2_3, Q86UL8 = target: MAGI2_3, Q86UL8
# MAGI3_2, Q5TCQ9 = target: MAGI3_2, Q5TCQ9
# MAST2, Q6P0Q8 = target: MAST2, Q6P0Q8
# NHERF3_3, Q5T2W1 = target: T6, NHERF3_3, Q5T2W1
# NHERF4_4, Q86UT5 = target: NHERF4_4, Q86UT5
# PARD3_3, Q8TEW0 = target: PARD3_3, Q8TEW0
# RHPN1, Q8TCX5 = target: T7, RHPN1, Q8TCX5
# SNTA1, Q13424 = target: T8, SNTA1, Q13424
# Sequence of Inadl_4, Q8NI35 (Q8NI35 547-651): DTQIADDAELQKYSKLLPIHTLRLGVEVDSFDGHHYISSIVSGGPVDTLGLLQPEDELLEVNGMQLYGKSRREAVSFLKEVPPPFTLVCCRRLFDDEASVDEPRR
# Sequence of Inadl_10, Q8NI35 (Q8NI35 1673-1763): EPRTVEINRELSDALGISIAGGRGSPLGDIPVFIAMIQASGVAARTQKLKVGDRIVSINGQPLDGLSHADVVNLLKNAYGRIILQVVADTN
# Sequence of MAGI1_2, Q96QZ7 (Q96QZ7 456-580): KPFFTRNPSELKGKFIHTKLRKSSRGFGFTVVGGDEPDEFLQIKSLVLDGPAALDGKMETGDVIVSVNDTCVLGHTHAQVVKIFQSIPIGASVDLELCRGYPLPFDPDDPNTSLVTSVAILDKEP
# Sequence of Inadl_6, Q8NI35 (Q8NI35 1058-1167): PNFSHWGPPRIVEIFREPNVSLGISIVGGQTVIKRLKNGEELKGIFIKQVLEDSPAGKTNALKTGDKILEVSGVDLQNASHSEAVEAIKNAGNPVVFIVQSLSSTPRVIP
# Sequence of MAGI2_3, Q86UL8 (Q86UL8 600-682): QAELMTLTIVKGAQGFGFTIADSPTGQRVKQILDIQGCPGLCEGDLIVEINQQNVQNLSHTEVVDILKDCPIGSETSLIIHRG
# Sequence of DLG4_3, P78352 (P78352 306-403): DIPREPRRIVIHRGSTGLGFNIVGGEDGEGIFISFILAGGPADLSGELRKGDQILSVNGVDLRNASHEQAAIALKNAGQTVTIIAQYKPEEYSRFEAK
# Sequence of GORASP1, Q9BQQ3 (Q9BQQ3 1-208): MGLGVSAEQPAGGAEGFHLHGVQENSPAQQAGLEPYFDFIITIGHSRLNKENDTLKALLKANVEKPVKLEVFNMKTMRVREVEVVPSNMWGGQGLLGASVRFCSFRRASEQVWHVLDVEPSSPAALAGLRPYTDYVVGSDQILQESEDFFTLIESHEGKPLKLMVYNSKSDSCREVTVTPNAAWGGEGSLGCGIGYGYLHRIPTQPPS
# Sequence of FRMPD2_2, Q68DX3 (Q68DX3 944-1038): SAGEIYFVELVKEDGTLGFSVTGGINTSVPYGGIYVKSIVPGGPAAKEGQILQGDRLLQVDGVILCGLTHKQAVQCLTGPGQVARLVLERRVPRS
# Sequence of Inadl_1, Q8NI35 (Q8NI35 113-229): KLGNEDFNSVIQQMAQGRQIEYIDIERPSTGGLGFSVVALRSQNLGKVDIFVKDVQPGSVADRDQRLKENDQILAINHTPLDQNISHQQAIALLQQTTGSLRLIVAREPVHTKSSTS
# Sequence of PARD3_3, Q8TEW0 (Q8TEW0 582-685): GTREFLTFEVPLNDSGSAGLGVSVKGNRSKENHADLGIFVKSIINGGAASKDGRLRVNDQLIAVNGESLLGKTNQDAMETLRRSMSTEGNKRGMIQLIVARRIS
# Sequence of MAGI3_2, Q5TCQ9 (Q5TCQ9 398-503): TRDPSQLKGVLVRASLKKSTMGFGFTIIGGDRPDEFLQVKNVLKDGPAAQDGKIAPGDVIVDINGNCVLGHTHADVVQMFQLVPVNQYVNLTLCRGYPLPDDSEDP
# Sequence of NHERF4_4, Q86UT5 (Q86UT5 464-550): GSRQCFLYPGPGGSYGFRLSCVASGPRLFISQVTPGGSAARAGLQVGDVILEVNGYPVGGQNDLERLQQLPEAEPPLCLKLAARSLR
# Sequence of MAST2, Q6P0Q8 (Q6P0Q8 1099-1202): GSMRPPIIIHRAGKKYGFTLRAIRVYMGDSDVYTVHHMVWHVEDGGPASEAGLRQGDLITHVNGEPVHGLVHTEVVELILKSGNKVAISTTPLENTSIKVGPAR
# Sequence of ARHGEF12, Q9NZN5-2 (Q9NZN5 other isoform, or with tags, fused parts or gaps): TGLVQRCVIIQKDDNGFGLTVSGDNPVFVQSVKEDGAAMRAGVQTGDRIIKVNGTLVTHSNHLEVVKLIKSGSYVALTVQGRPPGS
# Sequence of FRMPD2_1, Q68DX3 (Q68DX3 770-861): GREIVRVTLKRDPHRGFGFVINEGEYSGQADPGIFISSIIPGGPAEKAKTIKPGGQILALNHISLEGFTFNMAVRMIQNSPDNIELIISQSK
# Sequence of LNX1_3, Q8TBB1 (Q8TBB1 500-596): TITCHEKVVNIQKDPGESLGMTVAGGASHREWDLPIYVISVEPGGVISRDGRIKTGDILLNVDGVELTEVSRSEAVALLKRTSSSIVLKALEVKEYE
# Sequence of GRIP2_3, Q9C0E4 (Q9C0E4 238-339): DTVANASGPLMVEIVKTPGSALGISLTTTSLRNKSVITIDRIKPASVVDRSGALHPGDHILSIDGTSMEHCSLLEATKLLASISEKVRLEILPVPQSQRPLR
# Sequence of LNX1_2, Q8TBB1 (Q8TBB1 371-470): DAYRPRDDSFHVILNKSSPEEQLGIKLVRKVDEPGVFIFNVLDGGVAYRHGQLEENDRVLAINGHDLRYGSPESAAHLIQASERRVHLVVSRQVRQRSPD
# Sequence of DLG2_2, Q15700 (Q15700 189-283): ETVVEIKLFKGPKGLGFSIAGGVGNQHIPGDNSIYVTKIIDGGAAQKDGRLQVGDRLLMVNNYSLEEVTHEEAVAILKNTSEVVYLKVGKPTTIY
# Sequence of Inadl_8, Q8NI35 (Q8NI35 1425-1530): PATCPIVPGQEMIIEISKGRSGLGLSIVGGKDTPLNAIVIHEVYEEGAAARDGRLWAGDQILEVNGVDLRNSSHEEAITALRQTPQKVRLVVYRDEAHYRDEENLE
# Sequence of FRMPD3, Q5JV73 (Q5JV73 12-100): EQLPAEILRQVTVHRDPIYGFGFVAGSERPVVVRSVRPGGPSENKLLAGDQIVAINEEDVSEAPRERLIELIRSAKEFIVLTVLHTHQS
Binder,"pKd (APBA1_2, Q02410)","pKd (ARHGEF12, Q9NZN5-2)","pKd (DLG1_1, Q12959)","pKd (DLG2_2, Q15700)","pKd (DLG3_3, Q92796)","pKd (DLG4_3, P78352)","pKd (FRMPD2_1, Q68DX3)","pKd (FRMPD2_2, Q68DX3)","pKd (FRMPD3, Q5JV73)","pKd (GOPC, Q9HD26)","pKd (GORASP1, Q9BQQ3)","pKd (GRIP2_3, Q9C0E4)","pKd (HTRA3, P83110)","pKd (Inadl_1, Q8NI35)","pKd (Inadl_10, Q8NI35)","pKd (Inadl_4, Q8NI35)","pKd (Inadl_6, Q8NI35)","pKd (Inadl_8, Q8NI35)","pKd (LIN7B, Q9HAP6)","pKd (LIN7C, Q9NUP9)",further results
"TKEIPNCTSV [SORCS3, Q9UPU3]",4.64,4.54,4.22,4.1,4,3.71,below the threshold,4.21,below the threshold,3.95,below the threshold,below the threshold,3.52,below the threshold,3.95,below the threshold,below the threshold,4.28,below the threshold,below the threshold,"pKd (LNX1_2, Q8TBB1): 3.78; pKd (LNX1_3, Q8TBB1): below the threshold; pKd (MAGI1_2, Q96QZ7): 3.94; pKd (MAGI2_3, Q86UL8): 3.98; pKd (MAGI3_2, Q5TCQ9): 4.67; pKd (MAST2, Q6P0Q8): 5.82; pKd (NHERF3_3, Q5T2W1): below the threshold; pKd (NHERF4_4, Q86UT5): 4.05; pKd (PARD3_3, Q8TEW0): below the threshold; pKd (RHPN1, Q8TCX5): 3.81; pKd (SNTA1, Q13424): 4.16"
"NSTHNLKDYV [CLDN20, P56880]",3.69,below the threshold,below the threshold,below the threshold,below the threshold,below the threshold,below the threshold,below the threshold,below the threshold,below the threshold,below the threshold,below the threshold,3.97,below the threshold,below the threshold,below the threshold,below the threshold,3.82,below the threshold,below the threshold,"pKd (LNX1_2, Q8TBB1): below the threshold; pKd (LNX1_3, Q8TBB1): below the threshold; pKd (MAGI1_2, Q96QZ7): below the threshold; pKd (MAGI2_3, Q86UL8): below the threshold; pKd (MAGI3_2, Q5TCQ9): below the threshold; pKd (MAST2, Q6P0Q8): below the threshold; pKd (NHERF3_3, Q5T2W1): below the threshold; pKd (NHERF4_4, Q86UT5): below the threshold; pKd (PARD3_3, Q8TEW0): below the threshold; pKd (RHPN1, Q8TCX5): below the threshold; pKd (SNTA1, Q13424): below the threshold"
"DLLGGGSDSI [TNRC6B, Q9UPQ9]",below the threshold,3.71,below the threshold,below the threshold,below the threshold,below the threshold,below the threshold,below the threshold,below the threshold,below the threshold,below the threshold,below the threshold,below the threshold,below the threshold,below the threshold,below the threshold,below the threshold,below the threshold,3.61,3.48,"pKd (LNX1_2, Q8TBB1): below the threshold; pKd (LNX1_3, Q8TBB1): below the threshold; pKd (MAGI1_2, Q96QZ7): below the threshold; pKd (MAGI2_3, Q86UL8): below the threshold; pKd (MAGI3_2, Q5TCQ9): below the threshold; pKd (MAST2, Q6P0Q8): below the threshold; pKd (NHERF3_3, Q5T2W1): below the threshold; pKd (NHERF4_4, Q86UT5): below the threshold; pKd (PARD3_3, Q8TEW0): below the threshold; pKd (RHPN1, Q8TCX5): 3.79; pKd (SNTA1, Q13424): below the threshold"
